Tests used:
[1] = molecular target: T1, mIgG Fc-human PSMA ECD (human); test: SPR (Biacore T200), bispecific amine-coupled, mFc-PSMA dimer 1-81 nM as analyte, 1:1 fit
T1 construct: Called PSMA dimer in the SPR method; also called mFc-Hu PSMA ECD; murine Fc-tagged human PSMA ECD
Method: (§1) SPR studies were performed on a subset of bispecific constructs binding to Human and cynomolgus primate PSMA ectodomain (ECD) fused to the c-terminus of a murine IgG1 Fc region. These experiments were conducted at 25° C. in dPBS (Gibco, 14040-133) with 0.2% BSA buffer on a Biacore T200 system. Bispecific constructs were immobilized at a density of ˜2,000-4,000 response units (RU) onto individual flow cells of a CM5 research-grade sensor chip (GE) by standard amine coupling chemistry, leaving one flow cell surface unmodified as the reference. Using a multi-cycle kinetics mode, a buffer blank and […] different concentrations of the PSMA dimer ranging from 1 nM to 81 nM in dPBS with 0.2% BSA were sequentially injected through each flow cell at 30 μL/min for 300 seconds followed by a 600 second dissociation phase. Regeneration was achieved by injection of 10 mM glycine pH 2.0 at a flow rate of 30 μL/min for 40 seconds followed by dPBS with 0.2% BSA buffer stabilization for 1 min.
(§2) Sensorgrams obtained from kinetic SPR measurements were analyzed by the double subtraction method. The signal from the reference flow cell was subtracted from the analyte binding response obtained from flow cells with captured ligands. The buffer blank response was then subtracted from analyte binding responses and the final double-referenced data were analyzed with Biacore T200 Evaluation software (2.0, GE), globally fitting data to derive kinetic parameters. All sensorgrams were fitted using a simple one-to-one binding model.

[2] = molecular target: T2, mIgG Fc-cyno PSMA ECD (cynomolgus monkey); test: as above
T2 construct: Called PSMA dimer in the SPR method; also called mFc-Cyno PSMA ECD; murine Fc-tagged cyno PSMA ECD
T2 chain: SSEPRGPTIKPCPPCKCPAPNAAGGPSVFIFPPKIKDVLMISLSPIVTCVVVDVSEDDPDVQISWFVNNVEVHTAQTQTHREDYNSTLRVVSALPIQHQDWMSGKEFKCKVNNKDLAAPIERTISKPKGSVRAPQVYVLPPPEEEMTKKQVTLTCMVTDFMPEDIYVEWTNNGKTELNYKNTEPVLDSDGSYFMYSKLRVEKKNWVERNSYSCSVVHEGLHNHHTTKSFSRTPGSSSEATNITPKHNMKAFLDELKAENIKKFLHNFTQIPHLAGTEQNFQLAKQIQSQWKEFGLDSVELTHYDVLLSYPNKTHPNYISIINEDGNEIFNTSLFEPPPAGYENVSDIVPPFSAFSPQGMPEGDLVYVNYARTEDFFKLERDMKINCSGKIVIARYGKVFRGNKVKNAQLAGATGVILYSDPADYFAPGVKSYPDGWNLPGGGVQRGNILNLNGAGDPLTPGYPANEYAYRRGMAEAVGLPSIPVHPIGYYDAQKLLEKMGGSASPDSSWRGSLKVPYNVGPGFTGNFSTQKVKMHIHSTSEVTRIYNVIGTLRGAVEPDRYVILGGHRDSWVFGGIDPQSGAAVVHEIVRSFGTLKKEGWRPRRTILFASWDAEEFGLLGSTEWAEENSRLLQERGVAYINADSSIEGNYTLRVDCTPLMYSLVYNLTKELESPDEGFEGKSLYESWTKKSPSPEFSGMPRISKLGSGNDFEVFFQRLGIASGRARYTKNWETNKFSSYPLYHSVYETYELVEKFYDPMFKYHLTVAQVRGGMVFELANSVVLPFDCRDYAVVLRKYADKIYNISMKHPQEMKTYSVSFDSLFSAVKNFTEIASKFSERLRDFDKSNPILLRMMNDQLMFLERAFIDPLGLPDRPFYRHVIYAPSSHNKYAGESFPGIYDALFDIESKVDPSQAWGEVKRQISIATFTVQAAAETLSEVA
Method: as §1, §2

Kd [1]: 3 nM | Kd [2]: 4.4 nM
B1: PSMA01107 Anti-PSMA scFv x Fc x linker x Anti CD3 scFv; Anti PSMA scFv x Fc (bispecific antibody)
chain 1: QVQLVQSGAEVKKPGASVKVSCKASGYTFTDYYMHWVRQAPGQGLEWMGYFNPYNDYTRYAQKFQGRVTMTRDTSTSTVYMELSSLRSEDTAVYYCARSDGYYDAMDYWGQGTTVTVSSGGGGSGGGGSGGGGSGGGGSDIQMTQSPSSLSASVGDRVTITCRASKSISKYLAWYQQKPGKAPKLLIHSGSSLESGVPSRFSGSGSGTEFTLTISSLQPDDFATYYCQQHIEYPWTFGQGTKVEIKEPKSSDKTHTCPPCPAPPAAAPSVFLFPPKPKDTLMISRTPEVTCVVVDVSHEDPEVKFNWYVDGVEVHNAKTKPREEQYNSTYRVVSVLTVLHQDWLNGKEYKCAVSNKALPAPIEKTISKAKGQPREPQVYTLPPSRDELTKNQVSLWCLVKGFYPSDIAVEWESNGQPENNYKTTPPVLDSDGSFFLYSKLTVDKSRWQQGNVFSCSVMHEALHNHYTQKSLSLSPGGGGSPSQVQLVQSGAEVKKPGASVKVSCKASGYTFTRSTMHWVRQAPGQGLEWIGYINPSSAYTNYAQKFQGRVTLTADKSTSTAYMELSSLRSEDTAVYYCASPQVHYDYNGFPYWGQGTLVTVSSGGGGSGGGGSGGGGSGGGGSDIQMTQSPSSLSASVGDRVTITCRASSSVSYMNWYQQKPGKAPKRWIYDSSKLASGVPSRFSGSGSGTDFTLTISSLQPEDFATYYCQQWSRNPPTFGQGTKVEIKRS
chain 2: QVQLVQSGAEVKKPGASVKVSCKASGYTFTDYYMHWVRQAPGQGLEWMGYFNPYNDYTRYAQKFQGRVTMTRDTSTSTVYMELSSLRSEDTAVYYCARSDGYYDAMDYWGQGTTVTVSSGGGGSGGGGSGGGGSGGGGSDIQMTQSPSSLSASVGDRVTITCRASKSISKYLAWYQQKPGKAPKLLIHSGSSLESGVPSRFSGSGSGTEFTLTISSLQPDDFATYYCQQHIEYPWTFGQGTKVEIKEPKSSDKTHTCPPCPAPPAAAPSVFLFPPKPKDTLMISRTPEVTCVVVDVSHEDPEVKFNWYVDGVEVHNAKTKPREEQYNSTYRVVSVLTVLHQDWLNGKEYKCAVSNKALPAPIEKTISKAKGQPREPQVYTLPPSRDELTKNQVSLSCAVKGFYPSDIAVEWESNGQPENNYKTTPPVLDSDGSFFLVSKLTVDKSRWQQGNVFSCSVMHEALHNHYTQKSLSLSPG
notes: Heterodimer, bivalent for PSMA and monovalent for CD3 (VH-VL scFv at the C-terminus); also called PSMA1107

From patent US20240301086A1 (APTEVO RESEARCH AND DEVELOPMENT, published 2024)
